Experimental data taken from patent US20260092267.

Tested on: H3K4 histone substrate (histone H3)

SETD7-dCas9 protein (purified from pET-SETD7-dCas9-NLS-6×His)
in vitro H3K4 methylation activity: the SETD7-dCas9 protein was confirmed to have H3K4 methylation activity with H3K4 histone substrate through in vitro analysis
